# Measured values from patent US20230159632A1 (SHANGHAI JUNSHI BIOSCIENCES, published 2023).
# Positions count from the first letter of the chain named.
# B1: humanized antibody hu59 (antibody, human IgG4 S228P, kappa, V domains shown)
# VH: QVQLQESGPGLVKPSETLSLTCTVTGYSISSDYAWSWIRQPPGKGLEWIGFISYSGPTSYNPSLKSRVTISRDTSKNQFSLKLSSVTAADTAVYYCARGGDGDSFDYWGQGTLVTVSS
# VL: DVVMTQSPLSLPVTLGQPASISCRSSQSIVHSNGNTYLDWYLQKPGKSPKLLIYKVSNRFSGVPDRFSGSGSGTDFTLKISRVEAEDLGVYYCFQGSHFPTFGQGTKLEIKR
# B2: humanized antibody hu250 (antibody, human IgG4 S228P, kappa, V domains shown)
# VH: B1 VH with T25S, S30T, S80F, K82Q, S84K, L113T
# VL: B1 VL with S7T, P12S, L15P, R24K, K47Q, L88V, Q104G, L108V
# B3: humanized antibody hu60 (antibody, human IgG4 S228P, kappa, V domains shown)
# VH: B1 VH
# VL: B1 VL with K47Q, D75S
# B4: humanized antibody hu43 (antibody, human IgG4 S228P, kappa, V domains shown)
# VH: QIQLVQSGAEVKKPGASVKISCKASGYIFTNYGMNWMRQAPGQGLEWMGWINDHTGEPTYADKFQGRVTFTLDTSASTAYMELSRLRSDDTAVYYCANYGFGYFDYWGQGTLVTVSS
# VL: DVVMTQSPLSLPVTLGQPASISCRSSQSLVHSNGNSYLHWYLQKPGQSPQLLIYKVSNRFSGVPDRFSGSGSGTDFTLKISRVEAEDVGVYYCSQSTHVPYTFGQGTKLEIKR
# B5: humanized antibody hu44 (antibody, human IgG4 S228P, kappa, V domains shown)
# VH: B4 VH
# VL: B4 VL with Y92F
# B6: humanized antibody hu31 (antibody, human IgG4 S228P, kappa, V domains shown)
# VH: B4 VH with I2V, I20V, A76I
# VL: B4 VL
# notes: Humanized from ch1
# B7: chimeric antibody ch1 (antibody, V domains shown)
# VH: QIQLVQSGPELKKPGETVKISCKASGYIFTNYGMNWMKQAPGKGLKWMGWINDHTGEPTYADDFKGRFAFSLETSASTAYLQINNLKKEDTATYFCANYGFGYFDYWGQGTTLTVSS
# VL: DVVMTQTPLSLPVSLGDQASISCRSSQSLVHSNGNSYLHWYLQKPGQSPKLLIYKVSNRFSGVPDRFSGSGSGTDFTLKISRVEAEDLGVYFCSQSTHVPYTFGGGTKLEIK
# B8: chimeric antibody ch2 (antibody, V domains shown)
# VH: B7 VH
# VL: B7 VL with M4V, S26G, N35H, S36T, L38F, V90I
# B9: chimeric antibody ch7 (antibody, V domains shown)
# VH: QVQLKESGPGLVAPSQSLSITCTVSGFSLINYDIHWLRQPPGKGLEWLGVIWAGGRTHSDSALMSRLSISKDNSKSQVFLNVHSLRPEDTAIYYCAREGGDYYKYLDFWGQGTTLTVSS
# VL: DVKMTQSPSSMYASLGERVTITCKASHDINSYLSWFQQKPGKSPKTLIYRANGLVDGVPSRFSGSGSGQDYSLTISSLEYEDMGVYYCLQYEMLPLTFGAGTKLELK
# B10: chimeric antibody ch16 (antibody, V domains shown)
# VH: DVQLQESGPGLVKPSQSLSLTCTVTGYSITSDYAWSWIRQFPGNKLEWMAFISYSGPTSYNPSLKSRVSITRDTSKNQFFLQLKSVTTEDTATYYCARGGDGDSFDYWGQGTTLTVSS
# VL: DVLMTQTPLSLPVSLGDQASISCRSSQSIVHSNGNTYLDWYLQKPGQSPKLLIYKVSNRFSGVPDRFSGSGSGTSFTLKISRVEAEDLGVYYCFQGSHFPTFGGGTKLEIK
# B11: chimeric antibody ch4 (antibody, V domains shown)
# VH: B7 VH
# VL: B10 VL
# Biological target: T1, recombinant human IL-17A-mFc protein (human, UniProt Q16552 24-155, Biotinylated before the blocking assays of Examples 9 and 12 (sites not given); disulfide-linked dimer through IL-17A and the Fc.)
# T1 construct: also called recombinant fusion protein IL-17A-mFc
# T1 sequence: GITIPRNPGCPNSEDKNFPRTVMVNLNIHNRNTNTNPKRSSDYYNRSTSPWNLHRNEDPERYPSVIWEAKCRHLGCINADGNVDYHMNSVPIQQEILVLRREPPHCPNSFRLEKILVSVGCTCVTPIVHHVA
# Test: ELISA, human IL-17A-mFc coated (method of Example 8)
# Experimental: (§1) The binding specificity of the chimeric antibodies to human IL-17A was determined by conventional ELISA. Namely, 0.5 μg/mL of human IL-17A-mFc was immobilized on a 96-well plate and incubated for 60-90 minutes at 37° C. The solution in wells was then discarded, and the wells were washed 3 times with washing buffer, and blocked for 60 minutes with PBS containing 2% BSA. The plate was washed 3 times with washing buffer, and added with diluted chimeric antibodies at different concentrations. The antibodies were incubated at 37° C. for 60 minutes. The plate was then washed 3 times with washing buffer, and added with 10000-fold diluted biotinylated anti-IgG4 antibody. The system was incubated at 37° C. for 1 hour, washed three times with washing buffer, added with HRP-Strep 10000-fold diluted with washing buffer, and incubated at room temperature for 1 hour. After 3 washes with washing buffer, 100 μL of TMB substrate was added for color development. The system was incubated at room temperature for 30 minutes, and the reaction was terminated with 100 μL of 2 M hydrochloric acid solution. The absorbance at 450 nm was measured by a plate reader.
# The binding specificity of the humanized antibodies to human IL-17A was determined by conventional ELISA. The method and procedures are described in Example 8.
row,Molecule,EC50 [µg/mL]
1,B1,0.0061
2,B2,0.00635
3,B3,0.00578
4,B4,0.00864
5,B5,0.00676
6,B6,0.00813

# Biological target: T2, human IL-17RA on stable IL-17RA 293F cell lines (human) (UniProt Q96F46)
# T2 sequence (looked up): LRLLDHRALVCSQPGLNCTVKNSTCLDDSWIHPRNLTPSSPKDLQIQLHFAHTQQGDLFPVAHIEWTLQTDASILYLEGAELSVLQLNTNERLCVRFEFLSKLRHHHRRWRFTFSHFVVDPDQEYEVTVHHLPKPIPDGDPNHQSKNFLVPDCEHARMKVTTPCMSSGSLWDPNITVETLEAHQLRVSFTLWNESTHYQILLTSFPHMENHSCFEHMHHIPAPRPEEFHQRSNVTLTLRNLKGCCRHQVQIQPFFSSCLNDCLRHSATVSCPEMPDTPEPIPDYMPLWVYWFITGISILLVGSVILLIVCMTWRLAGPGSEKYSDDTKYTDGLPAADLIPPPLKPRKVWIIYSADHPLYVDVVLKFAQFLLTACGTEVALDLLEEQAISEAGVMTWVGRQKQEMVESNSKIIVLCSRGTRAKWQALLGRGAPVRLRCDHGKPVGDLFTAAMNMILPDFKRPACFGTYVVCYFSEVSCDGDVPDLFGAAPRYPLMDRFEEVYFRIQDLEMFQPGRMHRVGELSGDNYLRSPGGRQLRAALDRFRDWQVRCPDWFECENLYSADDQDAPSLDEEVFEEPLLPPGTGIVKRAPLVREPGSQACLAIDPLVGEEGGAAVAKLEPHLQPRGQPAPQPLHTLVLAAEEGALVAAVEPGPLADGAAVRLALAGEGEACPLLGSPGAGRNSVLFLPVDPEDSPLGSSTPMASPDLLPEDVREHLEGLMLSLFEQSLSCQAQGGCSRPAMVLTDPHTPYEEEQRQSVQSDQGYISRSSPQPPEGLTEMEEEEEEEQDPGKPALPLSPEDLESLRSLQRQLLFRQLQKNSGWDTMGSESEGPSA
# Test: FACS, 3 µg/mL IL-17A-mFc on stable IL-17RA 293F cells, anti-mouse IgG detection; control group (1% BSA, no IL-17A-mFc) gave 308
row,Molecule,MFI (mean fluorescence intensity) [MFI]
1,recombinant human IL-17A-mFc protein (from UniProt Q16552 24-155) (Fc fusion),7700

# Biological target: T1, recombinant human IL-17A-mFc protein
# Test: competitive FACS: blocks binding of biotinylated human IL-17A-mFc (3 µg/mL) to IL-17RA on 293F cells
# Experimental: (§2) The blocking of binding of IL-17A to IL-17RA on cells was detected by a competitive cell-based flow cytometry (FACS) assay. Briefly, chimeric antibody dilutions of different concentrations (3-fold diluted from 10 μg/mL) were mixed with the pre-biotinylated human IL-17A-mFC (3 μg/mL) obtained in Example 1, and incubated at room temperature for 30 minutes. […] After 3 washes with PBS, 5 μg/mL of anti-mouse IgG was added and the system was incubated at room temperature for 30 minutes.
row,Molecule,IC50 [µg/mL]
1,B7,4.46
2,B8,3.15
3,B9,1.22
4,B10,1.45

# Biological target: T1, recombinant human IL-17A-mFc protein
# Test: competitive FACS: blocks binding of biotinylated human IL-17A-mFc to IL-17RA on 293F cells
# Experimental: as §2
# The blocking of binding of IL-17A to IL-17RA on cells was detected by a competitive cell-based flow cytometry (FACS) assay. The method and procedures are described in Example 9.
row,Molecule,IC50 [µg/mL]
1,B1,0.467
2,B2,0.578
3,B3,0.483
4,B4,0.781
5,B5,0.829
6,B6,0.868

# Biological target: T1, recombinant human IL-17A-mFc protein
# Test: ELISA, human IL-17A-mFc (0.5 µg/mL) coated, biotinylated anti-IgG4 detection
# Experimental: as §1
row,Molecule,EC50 [µg/mL]
1,B7,0.00662
2,B11,0.0885
3,B8,0.00517
4,B9,0.04
5,B10,0.0154
